For assay [1], the target named is α4YFP nAChR subunit (mouse) (UniProt O70174). Put plainly: pixel-by-pixel sensitized emission FRET, Gaussian fit of the NFRET distribution, N2a cells.
For assay [2] the target is unchanged. Kind of assay: pixel-by-pixel sensitized emission FRET (NFRET), whole-cell ROI, N2a cells.

Chain of β2CFP nAChR subunit (Q9ERK7 26-501): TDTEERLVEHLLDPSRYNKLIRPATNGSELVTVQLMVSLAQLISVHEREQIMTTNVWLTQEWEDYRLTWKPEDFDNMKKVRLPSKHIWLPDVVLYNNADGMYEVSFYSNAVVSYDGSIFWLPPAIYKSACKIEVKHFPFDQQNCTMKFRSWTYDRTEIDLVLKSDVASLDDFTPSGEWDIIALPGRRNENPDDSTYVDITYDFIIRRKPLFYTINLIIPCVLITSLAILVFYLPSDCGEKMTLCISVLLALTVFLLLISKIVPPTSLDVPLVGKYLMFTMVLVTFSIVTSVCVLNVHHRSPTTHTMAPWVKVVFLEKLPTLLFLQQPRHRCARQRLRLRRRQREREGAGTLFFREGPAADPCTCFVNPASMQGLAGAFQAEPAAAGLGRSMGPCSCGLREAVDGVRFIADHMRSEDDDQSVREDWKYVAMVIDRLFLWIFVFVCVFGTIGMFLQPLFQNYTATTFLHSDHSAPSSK
Chain of α4YFP nAChR subunit (mouse) (O70174 31-629): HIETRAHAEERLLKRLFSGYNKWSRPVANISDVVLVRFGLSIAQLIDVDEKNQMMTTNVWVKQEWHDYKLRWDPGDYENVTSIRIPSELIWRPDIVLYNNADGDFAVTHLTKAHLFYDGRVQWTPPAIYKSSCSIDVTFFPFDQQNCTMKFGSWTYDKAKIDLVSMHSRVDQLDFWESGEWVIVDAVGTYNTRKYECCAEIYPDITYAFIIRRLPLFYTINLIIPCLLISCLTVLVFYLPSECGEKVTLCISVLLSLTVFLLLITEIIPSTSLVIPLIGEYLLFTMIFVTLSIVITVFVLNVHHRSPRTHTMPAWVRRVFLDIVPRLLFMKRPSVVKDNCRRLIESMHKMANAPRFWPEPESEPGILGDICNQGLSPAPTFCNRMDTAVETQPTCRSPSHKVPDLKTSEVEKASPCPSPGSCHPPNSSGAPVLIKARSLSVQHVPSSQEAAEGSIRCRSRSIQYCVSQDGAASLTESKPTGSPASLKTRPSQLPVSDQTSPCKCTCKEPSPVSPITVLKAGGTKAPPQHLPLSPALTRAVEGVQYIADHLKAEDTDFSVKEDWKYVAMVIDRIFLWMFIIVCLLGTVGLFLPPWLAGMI

As for “β2CFP nAChR subunit (from UniProt Q9ERK7 26-501) (receptor)”, in assay [1], the mean NFRET of first Gaussian component worked out at 0.19 and the mean NFRET of second Gaussian component was determined as 0.28. In addition, in assay [2], the mean NFRET for all pixels was found to be 0.2.

Source of the values: US20100209938A1.
